From the nanobody polyreactivity screen of Harvey et al. (2022)

test: yeast display, Sf9 membrane polyspecificity reagent, FACS + sequencing; frameworks hold sequencing errors
Procedure, shortened: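 Polyreactivity labels are assigned by the sorting gate from which each nanobody was recovered. The gates were low and high (top ~1%), set on anti-HA fluorescence for expression and streptavidin fluorescence for reagent binding. Before sorting, galactose-induced (36–48 hours) yeast display cells were stained for 1 hour at 4 °C with 10% biotinylated, detergent-solubilized Sf9 membrane reagent.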

Sequence	polyreactivity (PSR sort gate)
QVQLVESGGGLVQAGGSLRLSCAASGGTFSTNTMGWYRQAPGKEMELVAAITEGTGNTYYADSVKGRFTISRDTAKNTVYLQMNSLKPEDTAVYDCATVAYSGSDFSGSAGAGDYWGQGTQVTVSS	low polyreactivity
QVQLVESGGGLVQAGGSLRLSCAASGSTFRYYAMGWYRQAPGKERELVAAISRRGGSSYYADSVKGRFTISRDNAKKTVYLQMNSLKPEDTAVYYCNAAASTFTSWIRGPGVCYDYWGQGTQVTVSS	high polyreactivity
QVQLVESGGGLVQAGGSLRLSCAASGFTFSGYDMGWYRQAPGKERELVAGISSGGVSTTYADSVKGRFTISRDNAKNTVYLQMNSLKPEDTAVYYCSTSGPQYYSRNFDYWGQGTQVTVSS	low polyreactivity
QVQLVESGGGLVQAGGSLRLSCAASGFTFAYYTMGWYRQAPGKERELVVVINRSGSTNYADSVKGRFTISRDNAKNTVYLQMNSLKPEDTAVYYCATGVALRYGYWGQGTQVTVSS	low polyreactivity
QVQLVESGGGLVQAGGSLRLSCAASGSTFSGNAMGWYRQAPGKERELVAAISSGGDTYYADSVKGRFTNSRDNAKNTVYLQMNSLKPEDTAVYYCNARSTWRHRRDQVDFDYWGQGTQVTVSS	low polyreactivity
QVQLVESGRGLVQAGGSLRLSCAASGRIFRVNAMGWYRQAPGKERELVAAISWGGGSTYYADSVKGRFTISRDNAKNTVYLQMNSLKPEDTAVYYCATTLVKSQSRYYYWGQGTQVTVSS	high polyreactivity
QVQLVESGGGLVQAGGSLRLSCAASGSTFIHNAMGWYRQAPGKERELVAAITSGGSTYYADSVKGRFTISRDNAKNTVYLQMTSLKPEDTAVYYCNAGRGTRFVYIDGMDYWGQGTQVTVSS	high polyreactivity
QVQLVESGGGLVQAGGSLRLSCAASGRTFGYNAMGWYRQAPGKERELVATISWGGGSTYYADSVKGRFTISRDNAKNTVYLQMNSLKPEDTAVYYCNKVHYGRRHSYSGAIYGEDYWGQGTQVTVSS	high polyreactivity
QVQLVESGRCLVQDGRSLRLSCAASGRTFYGNAMGWYRQAPAKERELVAAISRSGGRTYYADSVKGRFTISRDNAKNTVYLEMISLKPEDTAVYYFASEIRFWYGYYYWGQGTQVTVSS	high polyreactivity
QVQLVESGGGLVQAGGSLRLSCAASGSTFTWNAMGWYRQAPGKERELVAAISGDGGSTYYADSVKGRFTISRDNAKNTVYLQMNSLKPEDTAVYYCAASSAHIFSYRYNFWGQGTQVTVSS	low polyreactivity
QVQLVESGGGLVQAGGSLRLSCAASGRIFSYYAMGWYRQAPGKERELVATIDRSGDPTSYADSVKGRFTISRDNAMNTVYLKMNSLKPEDTAVYYCAATSKRARYDSWGQGTQVTVSS	high polyreactivity
QDQLVESGGGLVQAGGSLRLSCAASGRTFRRYALGWYRQAPGKETELVAVISGGGTYYADSVKGRFTISRDNAKNTVYLQMNSLKPEDTAVYYCAARYRQTRSPSYDYWGQGTQVTVSS	high polyreactivity
QVQLVESGGRLVQAGGSLRLSCAASGYTFQRYAMGWYRQAPGKERELVAAISSSGGSTYYADSVKGRFTISRDNAKNTVYLQMNSLKPEDTAVFYCAVRFVSAWSRYDYWGQGTQVTVSS	high polyreactivity
QFQLVESCRGLVQAGGSLRLSCAASGFTFRANGMGWYRQAPGKERELVATITSGGTTNYADSVKGRFTISRDNAKNTVYLQMNSLKREDTAVYYCAKRFGPAYFRLYDYWGQGTQVTVSS	low polyreactivity
QVQLVESGGGLVQAGGSLRLSCAASGSTFVWYGMGWYRQAPGKEREFVAAISTSGGRTYYADSVKGRFTISRDNAKNTVYLQMNSLKPEDTAVYYCATRPYFTYRWYDYWGQGTQVTVSS	high polyreactivity
QVQLVESGGGLVQAGGSLRLSCAASGNNFYVNVMGSYRQAPGKEMEFVAAISTRGVSTSYADSVKGRFTISRDNAKYTVYLQMNSLKPEDTAVYYCAASFRRPQPKGTTYGYLGQGTQVTVSS	high polyreactivity

Sequence	polyreactivity (PSR sort gate)
QVQLVESGGGLVQAGGSLRLSCAASGRSFLGYPMGWYRQAARKERELVAAISSSGTSTYYADSVKGRFTISRDNAQNTVYLQMNSLKPEETSVYYCAKYAYSYYPPAYDYWGQGTKVTVSS	high polyreactivity
QVQLVESGGGLVQAGGSLRLSCAASGSILLRYAMGWYRQAPGKEWELVAAIRTIGASTYYADSVKGRFTISRYNAMITVYLQMNSLKPDDTAVYYCNAESASYWYRPGYDYWGQGNQVTVSS	low polyreactivity
QVQLVESGGGLVQAGGSLRLSCAASGSIVYVYAMGWYRQAPGKEREVVAAINTSGGSTYADSVKGRFTISRDNAKNTVYLQMNSLKPEDTAVYYCAADGYYEYTWGEYDSWGQGTQVTVSS	low polyreactivity
QVQLVESGGGLDQAGGSHRLSCAASGSNLSGYAMVWYRQAPGKERELVADISWTGGSTYYADSVKGRLTISRDNAKNTVYLQMISLKPEVTAVYYCATRSGYRRSRVIYYHDDYGYWGQGTQVTVSS	high polyreactivity
QVQLVESGGGLVQAGGSLRLSCAASGLIFRIYAMGWYRQAPGKERELVAAISSTGSRTYYADSVKGRFTISRDNAKNTVYLQMNSLKPEDTAVYYCAAKAYINNYDYWGQGTQVTVSS	high polyreactivity
QVQLVESGGGLVQAGGSLRISCAASGNIFGVYAMGWYRQAPGKERELVATITTGGSTYYADSVKGRFTISRDNAKNTVYLQMNSLKPEDTAVYYCAADVGGGNYVYYGNDYDDGYWGQGTQVTVSS	low polyreactivity
QVQLVESGGGLVQAGGSLRLSCAASGLILYHYAMGWYRQAPGKERELVAAISRSGGRTSYADSVKGRFTISRDNAKNTVYLQMNSLKPEDTAVFYCAAEKVGTRPSRDYDYWGQGTQVTVSS	high polyreactivity
QVHLVESGGGLVQAGGSLRLSCAASGYIFQYYAMGWSRQAPGKERELVAAITGGGSTKYADSVKGRFTISRDNAKNTVYLHMNSLKPEDTAVYYCAASLWYRISKYDYWGLGTQVTVSS	high polyreactivity
QDQLVESGVGLVQAGGSLRLSCAASGRIFGRYSMGWYRQAPGKEMEFVAAISKRGGGTYYADSVKGRFTISRDNAKNTVYLQMNSLKPEDSAVYYCAVDNSPGFDDYDYWGQGTQVTVSS	high polyreactivity
QVQLVESGGGLVQAGGSLRLSCAASGLTFYRYAMGWYRQAPGKEMELVAAIRVSGNTYYADSVKGPFTISRDNAKNTVYLEMNCLKPEDTAVYYCAAKPYYFYGMDYWGQGTQVTVSS	high polyreactivity
QVQLVESGGGLVQAGGSLRLSCAASGFIFYSNAMGWYRQAPGKERELVAAISRRGGSTYYADSVKGRFTISRDNAKNTVYLQMNSLKPEDTAVYYCAARVVSGFDSWGQGTQVTVSS	high polyreactivity
QVQLVESGGGLVQAGGSLRLSCAPSGFIFRLNGMGWYIQAPGKERELVATIDSGSSTNYADSVKGRFTISRDNAKNTVYLQMNSLKPEDTAVYYCAAVVISYYTHGDYDYWGQGTQVTVSS	low polyreactivity
QEQLQESGGGLVQACGSLRLSCAASGYIFSHQYMGWYRQAPGKERELVASISPRATTNYADSVKGRFTISRDNAKNTVYLQMNSLKPEDTAVYYYAVYQILDRRLSYWGQGTQVTVSC	high polyreactivity
QVHLVESGGGLVQAGGSLRLSCAASGYIFDIYAMGWYRQAPGKERELVAVITRSGGGTYYADSVKGRFTISRDNAKNTVYLQMNSLKPEDTAVYYCAAESYVYGGSDYDYWGQGTQVTVSS	low polyreactivity
QVHLVESGGVLVQAGGSLRLSCAASGSPFTKYAMGWYRQAPGKERELVAAFTGGGGSTYYADSVKGRFTISRDNAKNTVYLQLNSLKPEDSAVYYCAAKVALSRFRQWSYDYWGQGTQVTVSS	low polyreactivity
